{"source": "paper PMC5585231", "about": "“Endocytic sorting motif interactions involved in Nef-mediated downmodulation of CD4 and CD3” (Nature Communications, 2017)", "binders": {"B1": {"name": "SIVmac239 Nef (66-235) (domain or fragment)", "chain": "MATPWRNPAEEREKLAYRKQNMDDIDEEDDDLVGVSVRPKVPLRTMSYKLAIDMSHFIKEKGGLEGIYYSARRHRILDIYLEKEEGIIPDWQDYTSGPGIRYPKTFGWLWKLVPVNVSDEAQEDEEHYLMHPAQTSQWDDPWGEVLAWKFDPTLAYTYEAYVRYPEEFGS", "notes": "pGEX-4T1 with a TEV site; also called SIV-B; SIV Nef-B; source: E. coli BL21(DE3), purified (GSH resin, size exclusion chromatography)"}}, "target": "T1, CD3 ζ SNID2 peptide (22-mer) (human)", "T1 construct": "also called second ITAM motif of CD3 ζ; source: synthetic peptide (in house, Boc chemistry, RP-HPLC)", "T1 peptide": "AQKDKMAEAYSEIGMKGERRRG", "experiment": "ITC; Nef (typically 200 µM) injected stepwise from the syringe into 20 µM CD3 ζ peptide in the cell; 20 mM HEPES pH 8.0, 100 mM NaCl, 25 °C; MicroCal iTC200", "conditions": "both partners purified", "data": [{"binder": "B1", "values": [{"measurement": "stoichiometry N", "value": 1.07}]}]}
